Kd, increase of specific binding with 100 ug/ml heparin over no heparin and specific binding, cpm of the 100% value (without heparin) data for one substance are collected here from article PMC2115487.

The target in the experiment is TGF-beta receptor(s) on CCL64 mink lung epithelial cells (mink (endogenous in CCL64)). In words: radioligand binding.

By Kd is commonly meant a measure of binding affinity in units of concentration. High values mean weaker binding, low ones tighter binding. As to “Human TGF-beta (type 1), 125I-labeled (ligand)”, the Kd was determined as 8.3 pM; the increase of specific binding with 100 ug/ml heparin over no heparin was determined as 46%; the specific binding, cpm of the 100% value (without heparin) worked out at 325 cpm.
